Measurements as given in US20220185900A1 (Regeneron, published 2022).

T1: Macaca fascicularis (mf) RET.mmh (Macaca fascicularis)
T1 construct: also called monkey RET
T1 chain: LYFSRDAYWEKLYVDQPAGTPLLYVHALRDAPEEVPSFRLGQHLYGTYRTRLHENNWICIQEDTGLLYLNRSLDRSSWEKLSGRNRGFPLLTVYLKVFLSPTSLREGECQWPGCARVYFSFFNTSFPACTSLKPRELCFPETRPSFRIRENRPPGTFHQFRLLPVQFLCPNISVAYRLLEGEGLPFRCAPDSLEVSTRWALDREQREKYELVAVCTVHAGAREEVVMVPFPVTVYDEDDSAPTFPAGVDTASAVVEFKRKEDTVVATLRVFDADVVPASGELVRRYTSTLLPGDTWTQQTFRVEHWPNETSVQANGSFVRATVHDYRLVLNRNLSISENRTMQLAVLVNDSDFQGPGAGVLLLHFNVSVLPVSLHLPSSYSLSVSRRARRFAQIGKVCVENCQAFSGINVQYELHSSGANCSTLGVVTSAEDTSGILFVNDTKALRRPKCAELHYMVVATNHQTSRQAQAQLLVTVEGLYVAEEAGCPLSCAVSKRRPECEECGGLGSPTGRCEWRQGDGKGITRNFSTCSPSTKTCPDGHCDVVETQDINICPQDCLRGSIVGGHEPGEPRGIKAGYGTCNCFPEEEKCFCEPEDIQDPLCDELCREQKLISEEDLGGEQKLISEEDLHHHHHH


Assays:
[1] = target: T2, hRET.mFc (human); assay: SPR Biacore T200, mAb capture, 25 C
T2 construct: also called dimeric human RET
Method: (§1) Binding affinities and kinetic constants of human anti-RET antibodies were determined by surface plasmon resonance (Biacore T200) at […] (Tables 2-3). […] Binding equilibrium dissociation constants (KD) and dissociative half-lives (t_{1/2}) were calculated from the kinetic rate constants as: KD [M]=kd/kₐ; and t_{1/2}(min)=(ln2/(60*kd). Calculations were performed using BiacoreT200 evaluation software v1.0.

[2] = target: T1, Macaca fascicularis (mf) RET.mmh; assay: SPR Biacore T200, mAb capture, 25 C
Method: as §1

[3] = target: T3, hRET.mmh (human, UniProt P07949 29-635, biotinylated in the ELISA of Example 4 (biot-hRET.mmh); not in the SPR of Example 3); assay: SPR Biacore T200, mAb capture, 25 C
T3 construct: also called biot-hRET.mmh; soluble monomeric human RET
Method: as §1

[4] = target: T2, hRET.mFc; assay: SPR Biacore T200, mAb capture, 37 C
Method: as §1

[5] = target: T1, Macaca fascicularis (mf) RET.mmh; assay: SPR Biacore T200, mAb capture, 37 C
Method: as §1

[6] = target: T3, hRET.mmh; assay: SPR Biacore T200, mAb capture, 37 C
Method: as §1

[7] = target: T3, hRET.mmh; assay: competition sandwich ELISA: 1 nM biot-hRET.mmh + antibody, plate-coated GDNF/GFRα1 co-complex

Kd [1]	koff [1]	kon [1]	t½ [1]	Kd [2]	koff [2]	kon [2]	t½ [2]	Kd [3]	koff [3]	kon [3]	t½ [3]	Kd [4]	koff [4]	kon [4]	t½ [4]	Kd [5]	koff [5]	kon [5]	t½ [5]	other results	Binder
0.229 nM	8.71e-05 s⁻¹	381000 M⁻¹ s⁻¹	133 min	14.6 nM	0.0028 s⁻¹	192000 M⁻¹ s⁻¹	4 min	0.883 nM	0.000246 s⁻¹	279000 M⁻¹ s⁻¹	47 min	0.834 nM	0.000382 s⁻¹	459000 M⁻¹ s⁻¹	30 min	50.3 nM	0.0131 s⁻¹	261000 M⁻¹ s⁻¹	1 min	Kd [6]: 3.22 nM; koff [6]: 0.00127 s⁻¹; kon [6]: 395000 M⁻¹ s⁻¹; t½ [6]: 9 min; % Max Blocking [7]: 75%; IC50 [7]: 0.34 nM	H4H8045P (antibody, human IgG4, V domains shown, human IgG4 Fc (H4H prefix)) VH: EVQLVESGGALVQPGGSLRLSCAASGFTFSNYAMTWVRQAPGMGLEWVSGISSSGASTFYADSVKGRFTISRDNSKNTLYLQMNSLRAEDTAVYYCAKEDYWGWFDYWGQGTLVTVSS VL: DIQLTQSPSFLSASVGDRVTITCWASQDVSSYLAWYQQEPGKAPKVLIYDASTLQSGVPSRFSGSGSGTEFTLTISSLQPEDFAPYYCQQLNSYPYTFGQGTKLEIK
0.645 nM	0.000181 s⁻¹	280000 M⁻¹ s⁻¹	64 min	1.13 nM	0.000315 s⁻¹	278000 M⁻¹ s⁻¹	37 min	0.984 nM	0.000301 s⁻¹	306000 M⁻¹ s⁻¹	38 min	2.05 nM	0.000694 s⁻¹	338000 M⁻¹ s⁻¹	17 min	1.92 nM	0.00135 s⁻¹	704000 M⁻¹ s⁻¹	9 min	Kd [6]: 1.81 nM; koff [6]: 0.0013 s⁻¹; kon [6]: 718000 M⁻¹ s⁻¹; t½ [6]: 9 min; % Max Blocking [7]: 95%; IC50 [7]: < 0.25 nM	H4H8046P (antibody, human IgG4, V domains shown, human IgG4 Fc (H4H prefix)) VH: QVQLVQSRDEVKKPGASVKVSCKASGYTFTTYGISWVRQAPGQGLEWMGWINTYNGDTNYAQKVQDRVIMTTDTSTSTAYMELRSLRSDDTAVYFCAGARPLGGRRAFDIWGQGTMVTVSS VL: DIQMTQSPSSLSASVGDRVTITCRASQGISHYLAWYQQKPGKVPKLLIYAASTLQSGVPSRFSGSGSGTDFTLTISSLQPEDVATYYCQKYNSVPWTFGQGTKVEIK
